According to PMC6051491, “Dynamic structure mediates halophilic adaptation of a DNA polymerase from the deep-sea brines of the Red Sea”:

Columns and labels:
Assay in all cases: SPR; 100 mM NaCl; SPR (Biacore T100, SA chip, steady state): 20 mM Tris-HCl pH 8.8, 10 mM (NH4)2SO4, 0.1% Triton X-100, 100 or 300 mM NaCl; temperature not stated
KODBR3exo Pol = target: T1, KODBR3exo Pol (Thermococcus kodakarensis / BR3 chimera, UniProt P77933 1-130+A0A133VA65:160-367+329-406+767-851+1389-1671, internal_change); conditions: protein: recombinant; label: 3' biotin on template (immobilized); primer pairs with template 3' end; 5' overhang 23 nt of template
T1 sequence: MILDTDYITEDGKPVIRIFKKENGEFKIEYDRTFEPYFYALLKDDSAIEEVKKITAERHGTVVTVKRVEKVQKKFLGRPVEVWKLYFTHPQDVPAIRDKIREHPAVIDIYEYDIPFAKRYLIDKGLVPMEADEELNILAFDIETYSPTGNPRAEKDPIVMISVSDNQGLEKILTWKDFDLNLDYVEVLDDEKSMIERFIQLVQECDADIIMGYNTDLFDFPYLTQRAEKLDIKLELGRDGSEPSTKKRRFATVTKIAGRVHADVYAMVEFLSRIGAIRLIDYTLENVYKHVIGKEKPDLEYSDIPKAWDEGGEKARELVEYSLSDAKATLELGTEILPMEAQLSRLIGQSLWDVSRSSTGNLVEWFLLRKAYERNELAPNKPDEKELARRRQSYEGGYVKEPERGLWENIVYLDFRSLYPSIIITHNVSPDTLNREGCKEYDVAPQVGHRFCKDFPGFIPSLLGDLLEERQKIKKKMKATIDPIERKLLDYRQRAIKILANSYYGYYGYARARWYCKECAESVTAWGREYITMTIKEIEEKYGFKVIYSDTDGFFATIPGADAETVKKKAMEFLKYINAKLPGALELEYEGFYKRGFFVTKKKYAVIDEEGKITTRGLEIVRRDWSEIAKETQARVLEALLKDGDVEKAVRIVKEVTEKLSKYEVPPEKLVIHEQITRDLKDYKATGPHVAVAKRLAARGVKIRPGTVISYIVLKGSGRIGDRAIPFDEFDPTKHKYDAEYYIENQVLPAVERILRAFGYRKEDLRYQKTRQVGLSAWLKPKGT

KODBR3thumb Pol = target: T2, KODBR3thumb Pol (Thermococcus kodakarensis / BR3 chimera, UniProt P77933 1-406+767-851+1389-1479+A0A133VA65:621-805, internal_change); conditions: protein: recombinant; label: 3' biotin on template (immobilized); primer pairs with template 3' end; 5' overhang 23 nt of template
T2 sequence: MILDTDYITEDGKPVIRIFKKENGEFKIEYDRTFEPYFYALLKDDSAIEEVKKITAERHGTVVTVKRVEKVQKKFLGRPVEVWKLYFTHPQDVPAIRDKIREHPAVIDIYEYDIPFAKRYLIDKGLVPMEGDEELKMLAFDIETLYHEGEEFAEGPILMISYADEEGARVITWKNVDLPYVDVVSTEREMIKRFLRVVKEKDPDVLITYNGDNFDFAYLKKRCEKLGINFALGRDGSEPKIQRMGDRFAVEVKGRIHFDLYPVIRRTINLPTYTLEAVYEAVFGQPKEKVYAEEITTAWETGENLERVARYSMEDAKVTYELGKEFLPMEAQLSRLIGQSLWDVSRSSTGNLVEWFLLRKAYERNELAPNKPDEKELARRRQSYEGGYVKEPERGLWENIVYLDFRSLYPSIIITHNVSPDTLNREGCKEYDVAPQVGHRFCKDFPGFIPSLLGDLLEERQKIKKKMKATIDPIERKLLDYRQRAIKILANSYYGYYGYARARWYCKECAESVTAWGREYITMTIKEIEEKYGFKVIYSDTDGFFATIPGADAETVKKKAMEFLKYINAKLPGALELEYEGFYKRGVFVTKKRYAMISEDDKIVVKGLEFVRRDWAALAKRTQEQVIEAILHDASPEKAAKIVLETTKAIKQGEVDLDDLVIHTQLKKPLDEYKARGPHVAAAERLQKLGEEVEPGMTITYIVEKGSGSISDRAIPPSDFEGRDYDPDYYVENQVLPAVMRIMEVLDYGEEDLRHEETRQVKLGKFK

KOD Pol WT = target: T3, KOD Pol WT (Thermococcus kodakarensis, UniProt P77933 1-406+767-851+1389-1671, internal_change); conditions: protein: recombinant, tags: N-terminal His
T3 sequence: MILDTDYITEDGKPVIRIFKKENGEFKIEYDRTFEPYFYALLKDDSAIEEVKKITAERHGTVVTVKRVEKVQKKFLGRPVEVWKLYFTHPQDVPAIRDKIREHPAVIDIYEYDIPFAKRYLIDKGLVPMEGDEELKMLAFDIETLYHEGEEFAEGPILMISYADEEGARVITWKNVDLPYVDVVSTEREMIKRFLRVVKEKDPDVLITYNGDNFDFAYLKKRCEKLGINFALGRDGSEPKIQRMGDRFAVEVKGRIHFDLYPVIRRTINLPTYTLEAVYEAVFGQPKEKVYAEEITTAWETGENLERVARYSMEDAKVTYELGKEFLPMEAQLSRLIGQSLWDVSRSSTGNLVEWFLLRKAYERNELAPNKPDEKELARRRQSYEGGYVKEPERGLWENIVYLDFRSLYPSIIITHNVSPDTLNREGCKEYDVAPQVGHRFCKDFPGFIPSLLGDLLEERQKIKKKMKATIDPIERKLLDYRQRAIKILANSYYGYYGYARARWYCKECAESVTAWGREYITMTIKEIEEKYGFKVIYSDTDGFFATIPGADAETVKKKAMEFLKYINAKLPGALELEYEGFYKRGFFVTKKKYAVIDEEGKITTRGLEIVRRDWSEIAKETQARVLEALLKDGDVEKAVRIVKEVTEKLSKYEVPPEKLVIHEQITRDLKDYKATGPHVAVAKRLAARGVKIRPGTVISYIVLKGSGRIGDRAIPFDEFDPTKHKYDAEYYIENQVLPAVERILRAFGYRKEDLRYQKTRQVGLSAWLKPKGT

B1: primer/template (mixed)
DNA 1: GAGGTGGCGTCGGGTGGACGGGTGGATTGAAATTTAGGCTGGCAC
DNA 2: GTGCCAGCCTAAATTTCAATCC
KODBR3exo Pol
  Kd: 6.5 nM
KODBR3thumb Pol
  Kd: 12.5 nM
KOD Pol WT; label: 3' biotin on template (immobilized), primer pairs with template 3' end, 5' overhang 23 nt of template
  Kd: 3.5 nM

## TTTTTTTTTTTTTTTTTTTTTTTTTTTTTTTTTTTTTTTT (ssDNA) [ssDNA]
KOD Pol WT; label: 5' biotin (immobilized)
  Kd: 32.8 nM

B2: dsDNA (dsDNA)
DNA 1: B1 DNA 1
DNA 2: GTGCCAGCCTAAATTTCAATCCACCCGTCCACCCGACGCCACCTC
KOD Pol WT; label: 3' biotin on strand 1 (immobilized), blunt
  Kd: 239 nM
